Assay [1] deals with CheY K91C, methylene blue at position 91 (E. coli) (UniProt P0AE67). Description: electrochemical sensor.
Assay [2] has as its target phosphorylated CheY K91C, methylene blue at position 91 (E. coli) (UniProt P0AE67). As to the kind of experiment: electrochemical sensor.

We go through one substance from article PMC6021012.

pKd: −log10 of the molar value.

Broadly, the pKd is the negative decadic logarithm of the Kd, by convention in mol/L. The low end stands for a large Kd, the high end for a small Kd. Regarding “16-residue target region of the flagellar switch protein FliM (peptide)”, the pKd in assay [1] is 3.67; in assay [2], 4.80.
